This passage reports tumor volume results from patent US11407840B2, “Antibodies to M(H)DM2/4 and their use in diagnosing and treating cancer” (NomoCan Pharmaceuticals LLC, priority 2017, dated 2022).

The assay deals with mouse Lewis Lung cancer LL/2 cells (subcutaneous tumors). As to the kind of experiment: LL/2 syngeneic mouse model of lung cancer. It counts as in vivo, mouse (C57BL/6). To be noted: day 21; 0.4 mg/kg i.p. 3 times a week for 3 weeks, started with tumor cell inoculation; FIG. 16. How it is done: Methodology used (Syngeneic Mouse Models of lung, colon and pancreatic cancer): To investigate the anti-tumor effects of HDM2-specific antibodies on lung, colon and pancreatic tumors in vivo, three well-known syngeneic mouse models of lung, colon and pancreatic cancer were used (Sharma et al, 1999, J. Immunol. 163 (9):5020-5028; McIntyre, 2015, Bioassays 37(8):909-920; Li, et al, 2015, Sci. Rep. 5:7856). Subcutaneous tumors were prepared by implanting either mouse Lewis Lung cancer LL/2 cells (2.5×10^5 cells/mouse), mouse colon cancer MC-38 cells (5×10^5 cells/mouse) or mouse pancreatic cancer Panc-2 cells (2×10^6 cells/mouse) in the right flanks of 8-week-old female C57BL/6 mice (n=6-7). The mice were returned to their respective cages after tumor implantation. From day 7 after tumor implantation, the tumor volumes were measured 2 times/week with a digital caliper. In the case of MC-38 and Panc-2 study, treatment started when the tumors reached an average of 70-80 mm^3. In the case of LL/2 study, tumor cell inoculation and treatment were initiated simultaneously. Mice were micro-chipped and registered following tumor implantation. […]

B1: NMC-204: mouse monoclonal antibody, IgG3 isotype, binds NMC-P2 (SEQ ID NO:2); VH SEQ ID NO:38, VL SEQ ID NO:39 (antibody, V domains shown)
VH: EVQLQESGSVLVRPGASVKLSCKASGDTLSGSWMHWAMQRPGQGLEWIGEIHLNRGTTNYNEKFKGKATVTVDTSSSTAYVDLSSLTSEDSAVYYCARSPGFAYWGQGTLVTVSA
VL: GIVMTQAAPSVPVTPGESVSISCRSSKSLLHSNGNSYLYWFLQRPGQSPQLLIYRMSNLASGVPDRFSGSGSGTAFTLRITRVEAEDVGVYYCMQHLEYPFTFGSGTKLEIK
modifications: mAb NMC-204 Heavy Chain Variable Region; mAb NMC-204 Light Chain Variable Region
As to B1, the tumor volume turned out to be 1446 mm^3.
